{"source": "paper PMC3210727", "molecular_target": "H3N2 A/Hong Kong/1/1968 HA [change] (influenza A virus A/Hong Kong/1/1968 (H3N2))", "note": "Where “and” joins values, the source holds several entries; their conditions need not be identical. Identical values can stand only once."}
{"substance": "human monoclonal antibody CR8020", "values": [{"measurement": "Kd", "value": "2 nM and 3 nM"}]}
